Reference: patent EP3470426A1

Molecular target: T1, mouse CD137-Fc chimeric protein (mouse), P20334
T1 chain: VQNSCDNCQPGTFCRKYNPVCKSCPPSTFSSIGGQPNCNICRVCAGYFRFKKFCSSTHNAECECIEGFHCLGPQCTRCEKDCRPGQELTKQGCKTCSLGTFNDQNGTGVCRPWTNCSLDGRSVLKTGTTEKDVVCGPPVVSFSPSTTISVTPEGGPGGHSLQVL
Assay: SPR, CD137-Fc captured, binder injected
Details: remark: other sources report otherwise

Kd: 170 nM | koff: 0.059 s⁻¹ | kon: 350000 M⁻¹ s⁻¹
B1: PRO963 (protein)
chain: DIQMTQSPSSLSASVGDRVTITCQASQSINDYLAWYQQKPGKAPKLLIYKASTLASGVPSRFSGSGSGTDFTLTISSLQPEDFATYYCQQGYIITDIDNVFGTGTKVTVLGGGGGSQVQLQESGPGLVKPSETLSLTCKVSGFSFSNSYWICWIRQPPGKGLEWIGCTFVGSSDSTYYANWAKGRVTISVDSSKNQFSLKLSSVTAADTAVYYCARHPSDAVYGYANNLWGQGTLVTVSSGGGGSGGGGSGGGGSGGGGSIQMTQSPSSLSASVGDRVTITCQASQSINNVLAWYQQKPGKAPKLLIYRASTLASGVPSRFSGSGSGTDFTLTISSLQPEDFATYYCQSSYGNYGDFGTGTKVTVLGGGGGSQVQLQESGPGLVKPSETLSLTCKVSGFSFSSGYDMCWIRQPPGKGLEWIGCVVAGSVDITYYASWAKGRVTISVDSSKNQFSLKLSSVTAADTAVYYCARKDAYSDAFNLWGQGTLVTVSSGGGGSGGGGSIQMTQSPSSLSASVGDRVTITCQSSESVYSNNQLSWYQQKPGQPPKLLIYDASDLASGVPSRFSGSGSGTDFTLTISSLQPEDFATYYCAGGFSSSSDTAFGGGTKLTVLGGGGGSGGGGSGGGGSGGGGSEVQLVESGGGLVQPGGSLRLSCAASGFSLSSNAMGWVRQAPGKGLEYIGIISVGGFTYYASWAKGRFTISRDNSKNTVYLQMNSLRAEDTATYFCARDRHGGDSSGAFYLWGQGTLVTVSS
